Measurements taken from patent US20140205611A1.

Key:
Test in all cases: cell-based or functional assay
[1] = molecular target: recombinant hGM-CSF from E. coli (Peprotech) (human) (UniProt P04141)
[2] = molecular target: recombinant hGM-CSF derived from yeast (Leukine, Berlex) (human) (UniProt P04141)
[3] = molecular target: recombinant hGM-CSF expressed in E. coli (Fa. Biomol #2514) (human) (UniProt P04141)
Sequence of recombinant hGM-CSF expressed in E. coli (Fa. Biomol #2514) (human) (P04141 18-144 limits assumed): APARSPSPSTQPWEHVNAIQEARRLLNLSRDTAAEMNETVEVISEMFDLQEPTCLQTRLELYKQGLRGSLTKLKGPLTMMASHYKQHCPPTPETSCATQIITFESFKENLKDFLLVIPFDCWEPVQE

Sequence of recombinant hGM-CSF from E. coli (Peprotech) (human) (P04141 18-144 limits assumed): as above
Sequence of recombinant hGM-CSF derived from yeast (Leukine, Berlex) (human) (P04141 other isoform, or with tags, fused parts or gaps limits assumed, form in doubt): as the sequence (P04141 18-144 limits assumed) above, with R23L counted along it

Row | Substance | TF-1 cell proliferation with 0.5 ng/mL rhGM-CSF (WST-1 assay) [1] | TF-1 cell proliferation with 0.5 ng/mL rhGM-CSF (WST-1 assay) [2] | IC50 in TF-1 assay, hGM-CSF (E. coli) at 1.0 ng/ml final concentration [3]
1 | human anti-human cytomegalovirus monoclonal antibody (hIgG) | < 2 µg/mL | < 2 µg/mL | 
2 | rat-anti-human-GM-CSF IgG2a BVD2-21C11 (Fa. BD, #554503) (antibody) |  |  | 8.26 nM
